# B1: scFv-VHH bispecific molecule JL2 x 6H4 (scFv (VL-L-VH)-L-VHH with C-tag) (bispecific antibody)
# chain: DIVMTQSPLSLPVTPGEPASISCRSSQSLLHSDGYNYLDWYLQKSGQSPQLLIYLGSYRASGVPDRFSGSGSGTDFTLKISRVEAEDVGIYYCMQVLQTPWTFGQGTKVEIKGGSEGKSSGSGSESKSTGGSEVQLVESGGGLVQPGGSLRLSCVVSGFTFSSYWMTWVRQAPGKGLEWVANIKQDGSERYYVDSVKGRFTISRDSAKNSLYLQMNSLRAEDTAVYYCAREVGYNWNQGGYFDYWGQGTLVTVSSGGGGSEVQLVESGGGLVQAGGSLRLSCAASGRPFSNYGMGWFRQAPGKKREFVAGISWSGGSTDYADSVKGRFTISRDNAKNTVYLQMNSLKPEDTAVYYCAAVFSGAETAYYPSDDYDYWGQGTQVTVSSAAAEPEA
# B2: scFv-VHH bispecific molecule JL2 x 5D3 (scFv (VL-L-VH)-L-VHH with C-tag) (bispecific antibody)
# chain: DIVMTQSPLSLPVTPGEPASISCRSSQSLLHSDGYNYLDWYLQKSGQSPQLLIYLGSYRASGVPDRFSGSGSGTDFTLKISRVEAEDVGIYYCMQVLQTPWTFGQGTKVEIKGGSEGKSSGSGSESKSTGGSEVQLVESGGGLVQPGGSLRLSCVVSGFTFSSYWMTWVRQAPGKGLEWVANIKQDGSERYYVDSVKGRFTISRDSAKNSLYLQMNSLRAEDTAVYYCAREVGYNWNQGGYFDYWGQGTLVTVSSGGGGSEVQLVESGGGLVQAGGSLRLSCAASGRPFSNYAMGWFRQAPGKEREFVTVISWSGGSTYYADSVKGRFTISRDNAKNTVYLQMNSLKPEDTAVYYCAAQFSGASTVVAGTALDYDYWGQGTRVTVSSAAAEPEA
# B3: scFv-VHH bispecific molecule JL4 x 5D3 (scFv (VL-L-VH)-L-VHH with C-tag) (bispecific antibody)
# chain: DVVMTQSPLSLPVTLGQPASISCRSSQSLVYSDGNTYLNWFQQRPGQSPRRLIYKVSTRDSGVPDRFSGSGSGTDFTLKISRVEAEDVAVYYCLQGTHWPWTFGQGTKVEIKGGSEGKSSGSGSESKSTGGSQVQLVESGGGLVQPGGSLRLSCAASGITFSNYWMSWVRQAPGKGLEWVASIKRDGSDKYYVDSVKGRFTISRDNAKNSLSLQMHSLRAEDTAVYYCAKGEFDYWGQGTLVTVSSGGGGSEVQLVESGGGLVQAGGSLRLSCAASGRPFSNYAMGWFRQAPGKEREFVTVISWSGGSTYYADSVKGRFTISRDNAKNTVYLQMNSLKPEDTAVYYCAAQFSGASTVVAGTALDYDYWGQGTRVTVSSAAAEPEA
# B4: scFv-VHH bispecific molecule JL3 x 6H4 (scFv (VL-L-VH)-L-VHH with C-tag) (bispecific antibody)
# chain: QSVLTQPPSASGTPGQRVTISCSGSSSNIGSNIVNWYQQFPGTAPKLLLYSDNQRPSGVPDRFSGSKSGTSASLAISGLQSEDEADYYCAAWDDSLNGPVFGTGTKVTVLGGSEGKSSGSGSESKSTGGSQVQLQESGPGLVKPSETLSLTCSVSGGSIRNYYWSWIRQSAGKELEWFGHIFSTGHINYDSSLKSRVTMSVDTSNNQFSLKLRSVTAADTAVYYCARDNGAALFDFWGQGTLVTVSSGGGGSEVQLVESGGGLVQAGGSLRLSCAASGRPFSNYGMGWFRQAPGKKREFVAGISWSGGSTDYADSVKGRFTISRDNAKNTVYLQMNSLKPEDTAVYYCAAVFSGAETAYYPSDDYDYWGQGTQVTVSSAAAEPEA
# B5: scFv-VHH bispecific molecule JL5 x 6H4 (scFv (VL-L-VH)-L-VHH with C-tag) (bispecific antibody)
# chain: QSVLTQPPSASGTPGQRVTISCSGSSSNIGSNIVNWYQQFPGTAPKLLIYSNNQRPSGVPDRVSGSKSGTSASLAISGLQSEDEADYYCAAWDDSLNGPVFGPGTKVTVLGGSEGKSSGSGSESKSTGGSQVQLQESGPGLVKPSETLSLTCSVSGASIRNYYWSWIRQTAGKGLEWLGHIYSTGNIHYNPSLKSRVTMSVDTSNNQFSLKLRSVTAADTAVYYCARDNGAALFDYWGQGTLVTVSSGGGGSEVQLVESGGGLVQAGGSLRLSCAASGRPFSNYGMGWFRQAPGKKREFVAGISWSGGSTDYADSVKGRFTISRDNAKNTVYLQMNSLKPEDTAVYYCAAVFSGAETAYYPSDDYDYWGQGTQVTVSSAAAEPEA
# B6: scFv-VHH bispecific molecule JL3 x 5D3 (scFv (VL-L-VH)-L-VHH with C-tag) (bispecific antibody)
# chain: QSVLTQPPSASGTPGQRVTISCSGSSSNIGSNIVNWYQQFPGTAPKLLLYSDNQRPSGVPDRFSGSKSGTSASLAISGLQSEDEADYYCAAWDDSLNGPVFGTGTKVTVLGGSEGKSSGSGSESKSTGGSQVQLQESGPGLVKPSETLSLTCSVSGGSIRNYYWSWIRQSAGKELEWFGHIFSTGHINYDSSLKSRVTMSVDTSNNQFSLKLRSVTAADTAVYYCARDNGAALFDFWGQGTLVTVSSGGGGSEVQLVESGGGLVQAGGSLRLSCAASGRPFSNYAMGWFRQAPGKEREFVTVISWSGGSTYYADSVKGRFTISRDNAKNTVYLQMNSLKPEDTAVYYCAAQFSGASTVVAGTALDYDYWGQGTRVTVSSAAAEPEA
# B7: scFv-VHH bispecific molecule JL1 x 5D3 (scFv (VL-L-VH)-L-VHH with C-tag) (bispecific antibody)
# chain: DIVMTQSPLSLPVTPGEPASISCKSSQSLLFSNGYKFLDWYLQRPGQSPQLLIYLGSYRASGVPDRFSGSGSGTDFTLKISRVEAEDVGLYYCMQALQTPPTFGGGTKVEIKGGSEGKSSGSGSESKSTGGSEVQLVESGGGLVQPGGSLKVSCEASGFTFSVSAIHWVRQASGKGLEWIGRIRSKGNSYATAYAASVKGRFTISRDDSKNTAYLQMDSLKTEDTAVYYCTRHNDKWNYYGLDVWGQGTTVTVSSGGGGSEVQLVESGGGLVQAGGSLRLSCAASGRPFSNYAMGWFRQAPGKEREFVTVISWSGGSTYYADSVKGRFTISRDNAKNTVYLQMNSLKPEDTAVYYCAAQFSGASTVVAGTALDYDYWGQGTRVTVSSAAAEPEA
# B8: scFv-VHH bispecific molecule JL4 x 6H4 (scFv (VL-L-VH)-L-VHH with C-tag) (bispecific antibody)
# chain: DVVMTQSPLSLPVTLGQPASISCRSSQSLVYSDGNTYLNWFQQRPGQSPRRLIYKVSTRDSGVPDRFSGSGSGTDFTLKISRVEAEDVAVYYCLQGTHWPWTFGQGTKVEIKGGSEGKSSGSGSESKSTGGSQVQLVESGGGLVQPGGSLRLSCAASGITFSNYWMSWVRQAPGKGLEWVASIKRDGSDKYYVDSVKGRFTISRDNAKNSLSLQMHSLRAEDTAVYYCAKGEFDYWGQGTLVTVSSGGGGSEVQLVESGGGLVQAGGSLRLSCAASGRPFSNYGMGWFRQAPGKKREFVAGISWSGGSTDYADSVKGRFTISRDNAKNTVYLQMNSLKPEDTAVYYCAAVFSGAETAYYPSDDYDYWGQGTQVTVSSAAAEPEA
# B9: scFv-VHH bispecific molecule JL1 x 6H4 (scFv (VL-L-VH)-L-VHH with C-tag) (bispecific antibody)
# chain: DIVMTQSPLSLPVTPGEPASISCKSSQSLLFSNGYKFLDWYLQRPGQSPQLLIYLGSYRASGVPDRFSGSGSGTDFTLKISRVEAEDVGLYYCMQALQTPPTFGGGTKVEIKGGSEGKSSGSGSESKSTGGSEVQLVESGGGLVQPGGSLKVSCEASGFTFSVSAIHWVRQASGKGLEWIGRIRSKGNSYATAYAASVKGRFTISRDDSKNTAYLQMDSLKTEDTAVYYCTRHNDKWNYYGLDVWGQGTTVTVSSGGGGSEVQLVESGGGLVQAGGSLRLSCAASGRPFSNYGMGWFRQAPGKKREFVAGISWSGGSTDYADSVKGRFTISRDNAKNTVYLQMNSLKPEDTAVYYCAAVFSGAETAYYPSDDYDYWGQGTQVTVSSAAAEPEA
# B10: scFv-VHH bispecific molecule JL6 x 5D3 (scFv (VL-L-VH)-L-VHH with C-tag) (bispecific antibody)
# chain: QSVLTQPPSASGTPGQRVTISCSGSSSNIGSNPVNWYQQLPGTAPKLLIYSNNQRPSGVPDRFSGSKSGTSASLAISGLQSEDEADYFCAAWDDSLNGPVFGGGTKLTVLGGSEGKSSGSGSESKSTGGSQVQLQESGPGLVKPSETLSLTCTVSGGSISSYYWGWIRQPPGKGLEWIGYIYYSGSTNYNPSLKSRVTISVDTSKNQFSLKLSSVTAADTAVYYCARMWEILGFDPWGQGTLVTVSSGGGGSEVQLVESGGGLVQAGGSLRLSCAASGRPFSNYAMGWFRQAPGKEREFVTVISWSGGSTYYADSVKGRFTISRDNAKNTVYLQMNSLKPEDTAVYYCAAQFSGASTVVAGTALDYDYWGQGTRVTVSSAAAEPEA
# B11: scFv-VHH bispecific molecule JL6 x 6H4 (scFv (VL-L-VH)-L-VHH with C-tag) (bispecific antibody)
# chain: QSVLTQPPSASGTPGQRVTISCSGSSSNIGSNPVNWYQQLPGTAPKLLIYSNNQRPSGVPDRFSGSKSGTSASLAISGLQSEDEADYFCAAWDDSLNGPVFGGGTKLTVLGGSEGKSSGSGSESKSTGGSQVQLQESGPGLVKPSETLSLTCTVSGGSISSYYWGWIRQPPGKGLEWIGYIYYSGSTNYNPSLKSRVTISVDTSKNQFSLKLSSVTAADTAVYYCARMWEILGFDPWGQGTLVTVSSGGGGSEVQLVESGGGLVQAGGSLRLSCAASGRPFSNYGMGWFRQAPGKKREFVAGISWSGGSTDYADSVKGRFTISRDNAKNTVYLQMNSLKPEDTAVYYCAAVFSGAETAYYPSDDYDYWGQGTQVTVSSAAAEPEA
# B12: scFv-VHH bispecific molecule JL5 x 5D3 (scFv (VL-L-VH)-L-VHH with C-tag) (bispecific antibody)
# chain: QSVLTQPPSASGTPGQRVTISCSGSSSNIGSNIVNWYQQFPGTAPKLLIYSNNQRPSGVPDRVSGSKSGTSASLAISGLQSEDEADYYCAAWDDSLNGPVFGPGTKVTVLGGSEGKSSGSGSESKSTGGSQVQLQESGPGLVKPSETLSLTCSVSGASIRNYYWSWIRQTAGKGLEWLGHIYSTGNIHYNPSLKSRVTMSVDTSNNQFSLKLRSVTAADTAVYYCARDNGAALFDYWGQGTLVTVSSGGGGSEVQLVESGGGLVQAGGSLRLSCAASGRPFSNYAMGWFRQAPGKEREFVTVISWSGGSTYYADSVKGRFTISRDNAKNTVYLQMNSLKPEDTAVYYCAAQFSGASTVVAGTALDYDYWGQGTRVTVSSAAAEPEA
# Biological target: human CD33 on CD33-expressing THP-1 cells (human, UniProt P20138 18-364)
# Sequence (P20138 18-364): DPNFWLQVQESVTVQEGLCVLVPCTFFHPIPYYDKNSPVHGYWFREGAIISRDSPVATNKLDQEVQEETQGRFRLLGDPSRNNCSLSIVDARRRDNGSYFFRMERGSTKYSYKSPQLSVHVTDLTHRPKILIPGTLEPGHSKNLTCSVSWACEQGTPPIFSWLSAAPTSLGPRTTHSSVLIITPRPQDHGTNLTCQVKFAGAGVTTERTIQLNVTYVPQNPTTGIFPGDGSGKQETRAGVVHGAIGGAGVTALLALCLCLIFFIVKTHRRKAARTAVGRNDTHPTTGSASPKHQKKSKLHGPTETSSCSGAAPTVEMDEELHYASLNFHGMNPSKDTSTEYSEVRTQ
# Assay: cell-based or functional assay
Binder,Cytotox EC50 (nM) Donor 104 [nM],Cytotox EC50 (nM) Donor 156 [nM]
B1,~0.00097,~0.00077
B2,0.0027,~0.0019
B3,~0.027,0.023
B4,~0.00079,~0.00099
B5,~0.0013,~0.0019
B6,~0.0013,~0.0008
B7,~0.61,~0.43
B8,~0.0004,~0.00035
B9,0.011,0.0098
B10,0.0044,0.0029
B11,0.0012,0.0013
B12,~0.00093,~0.0007
